The record followed here is paper PMC7234810 (2020).

Assay [1] concerns the target H. polygyrus Binds Alarmin Receptor and Inhibits (HpBARI), N-terminal tagged (Heligmosomoides polygyrus). The assay can be described thus: SPR. (In general: Surface plasmon resonance follows binding to a sensor surface in real time, without labels.)
Assay [2] concerns the target HpBARI expressed with C-terminal tags (Heligmosomoides polygyrus). The assay can be described thus: SPR.

B1: Mouse IL-33-TRAP-Fc (a fusion protein of ST2 and IL-1RAcP with an Fc tag) (Fc fusion)
chain: SKSSWGLENEALIVRCPQRGRSTYPVEWYYSDTNESIPTQKRNRIFVSRDRLKFLPARVEDSGIYACVIRSPNLNKTGYLNVTIHKKPPSCNIPDYLMYSTVRGSDKNFKITCPTIDLYNWTAPVQWFKNCKALQEPRFRAHRSYLFIDNVTHDDEGDYTCQFTHAENGTNYIVTATRSFTVEEKGFSMFPVITNPPYNHTMEVEIGKPASIACSACFGKGSHFLADVLWQINKTVVGNFGEARIQEEEGRNESSSNDMDCLTSVLRITGVTEKDLSLEYDCLALNLHGMIRHTIRLRRKQPIDHRSERCDDWGLDTMRQIQVFEDEPARIKCPLFEHFLKYNYSTAHSSGLTLIWYWTRQDRDLEEPINFRLPENRISKEKDVLWFRPTLLNDTGNYTCMLRNTTYCSKVAFPLEVVQKDSCFNSAMRFPVHKMYIEHGIHKITCPNVDGYFPSSVKPSVTWYKGCTEIVDFHNVLPEGMNLSFFIPLVSNNGNYTCVVTYPENGRLFHLTRTVTVKVVGSPKDALPPQIYSPNDRVVYEKEPGEELVIPCKVYFSFIMDSHNEVWWTIDGKKPDDVTVDITINESVSYSSTEDETRTQILSIKKVTPEDLRRNYVCHARNTKGEAEQAAKVKQKVIPPRYTVELACGFGAT
On to B1, for which the koff in assay [1] was ~0.04 s⁻¹; in assay [2], ~0.13 s⁻¹.

Broadly, the koff is the rate constant with which the complex falls apart.
